Data as given in US20190002889.

Key:
[1] = test system: T1, RspWYL1 (WP_046441785.1, Ruminococcus sp. N15.MGS-57 WYL1 accessory protein)
T1 sequence: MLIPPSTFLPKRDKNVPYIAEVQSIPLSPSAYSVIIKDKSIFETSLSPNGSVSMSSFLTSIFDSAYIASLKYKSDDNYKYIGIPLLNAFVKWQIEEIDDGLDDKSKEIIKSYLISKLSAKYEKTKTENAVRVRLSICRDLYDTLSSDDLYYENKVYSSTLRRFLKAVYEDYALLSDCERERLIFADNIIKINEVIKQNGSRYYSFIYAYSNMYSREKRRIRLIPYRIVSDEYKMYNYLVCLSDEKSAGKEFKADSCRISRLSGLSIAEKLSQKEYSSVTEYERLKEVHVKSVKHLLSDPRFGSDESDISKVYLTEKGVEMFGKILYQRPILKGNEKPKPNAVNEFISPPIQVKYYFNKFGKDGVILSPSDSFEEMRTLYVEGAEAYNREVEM

[2] = molecular target: T2, RspWYL1 (WP_046441785.1, Ruminococcus sp. N15.MGS-57 WYL1 accessory protein)
T2 chain: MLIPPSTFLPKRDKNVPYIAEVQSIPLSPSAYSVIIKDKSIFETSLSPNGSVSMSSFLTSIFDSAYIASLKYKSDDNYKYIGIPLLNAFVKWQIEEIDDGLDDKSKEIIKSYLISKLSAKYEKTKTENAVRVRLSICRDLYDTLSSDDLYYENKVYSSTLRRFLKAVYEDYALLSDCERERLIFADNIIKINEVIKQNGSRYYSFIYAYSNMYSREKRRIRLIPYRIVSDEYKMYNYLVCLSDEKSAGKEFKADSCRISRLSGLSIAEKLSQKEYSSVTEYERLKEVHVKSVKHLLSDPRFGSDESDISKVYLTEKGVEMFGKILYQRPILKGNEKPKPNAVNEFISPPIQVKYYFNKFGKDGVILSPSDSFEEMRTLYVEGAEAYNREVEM

Bergeyella zoohelcum Cas13b (BzCas13b) was tested, and the “in vitro ssRNA cleavage activity (denaturing gel)” value [1] was “RspWYL1 enhanced the activity of BzCas13b”.

B1: EsCas13d (WP_005358205.1, Eubacterium siraeum DSM 15702 Type VI-D CRISPR-Cas effector) (protein)
chain: MGKKIHARDLREQRKTDRTEKFADQNKKREAERAVPKKDAAVSVKSVSSVSSKKDNVTKSMAKAAGVKSVFAVGNTVYMTSFGRGNDAVLEQKIVDTSHEPLNIDDPAYQLNVVTMNGYSVTGHRGETVSAVTDNPLRRFNGRKKDEPEQSVPTDMLCLKPTLEKKFFGKEFDDNIHIQLIYNILDIEKILAVYSTNAIYALNNMSADENIENSDFFMKRTTDETFDDFEKKKESTNSREKADFDAFEKFIGNYRLAYFADAFYVNKKNPKGKAKNVLREDKELYSVLTLIGKLRHWCVHSEEGRAEFWLYKLDELKDDFKNVLDVVYNRPVEEINNRFIENNKVNIQILGSVYKNTDIAELVRSYYEFLITKKYKNMGFSIKKLRESMLEGKGYADKEYDSVRNKLYQMTDFILYTGYINEDSDRADDLVNTLRSSLKEDDKTTVYCKEADYLWKKYRESIREVADALDGDNIKKLSKSNIEIQEDKLRKCFISYADSVSEFTKLIYLLTRFLSGKEINDLVTTLINKFDNIRSFLEIMDELGLDRTFTAEYSFFEGSTKYLAELVELNSFVKSCSFDINAKRTMYRDALDILGIESDKTEEDIEKMIDNILQIDANGDKKLKKNNGLRNFIASNVIDSNRFKYLVRYGNPKKIRETAKCKPAVRFVLNEIPDAQIERYYEACCPKNTALCSANKRREKLADMIAEIKFENFSDAGNYQKANVTSRTSEAEIKRKNQAIIRLYLTVMYIMLKNLVNVNARYVIAFHCVERDTKLYAESGLEVGNIEKNKTNLTMAVMGVKLENGIIKTEFDKSFAENAANRYLRNARWYKLILDNLKKSERAVVNEFRNTVCHLNAIRNININIKEIKEVENYFALYHYLIQKHLENRFADKKVERDTGDFISKLEEHKTYCKDFVKAYCTPFGYNLVRYKNLTIDGLFDKNYPGKDDSDEQK
For B1, the “targeted and collateral ssRNA nuclease activities (in vitro ssRNA cleavage assay, denaturing gel)” value [2] was “RspWYL1 enhanced the targeted and collateral ssRNA nuclease activities of EsCas13d to a similar extent as observed for RspCas13d”.

B2: RspCas13d (WP_046441786.1, Ruminococcus sp. N15.MGS-57 Type VI-D CRISPR-Cas effector) (protein)
chain: MAKKNKMKPRELREAQKKARQLKAAEINNNAAPAIAAMPAAEVIAPVAEKKKSSVKAAGMKSILVSKNKMYITSFGKGNSAVLEYEVDNNDYNQTQLSSKGSSNIELRGVNEVNITFSSKHGFESGVEINTSNPTHRSGESSPVRGDMLGLKSELEKRFFGKTFDDNIHIQLIYNILDIEKILAVYVTNIVYALNNMLSIKDSESYDDFMGYLSARNTYEVFTHPDKSNLSDKAKGNIKKSFSTFNDLLKTKRLGYFGLEEPKTKDTRVSQAYKKRVYHMLAIVGQIRQSVFHDKSSKLDEDLYSFIDIIDSEYRETLDYLVDERFDSINKGFIQGNKVNISLLIDMMKGYEADDIIRLYYDFIVLKSQKNLGFSIKKLREKMLDEYGFRFKDKQYDSVRSKMYKLMDFLLFCNYYRNDVVAGEALVRKLRFSMTDDEKEGIYADEASKLWGKFRNDFENIADHMNGDVIKELGKADMDFDEKILDSEKKNASDLLYFSKMIYMLTYFLDGKEINDLLTTLISKFDNIKEFLKIMKSSAVDVECELTAGYKLFNDSQRITNELFIVKNIASMRKPASSAKLTMFRDALTILGIDDNITDDRISEILKLKEKGKGIHGLRNFITNNVIESSRFVYLIKYANAQKIRKVAKNEKVVMFVLGGIPDTQIERYYKSCVEFPDMNSSLEVKRSELARMIKNISFDDFKNVKQQAKGRENVAKERAKAVIGLYLTVMYLLVKNLVNVNARYVIAIHCLERDFGLYKEIIPELASKNLKNDYRILSQTLCELCDKSPNLFLKKNERLRKCVEVDINNADSSMTRKYRNCIAHLTVVRELKEYIGDIRTVDSYFSIYHYVMQRCITKRENDTKQEEKIKYEDDLLKNHGYTKDFVKALNSPFGYNIPRFKNLSIEQLFDRNEYLTEK
In the case of B2, the “targeted and collateral ssRNA cleavage activity (in vitro ssRNA cleavage assay, denaturing gel)” value [2] is reported as “RspWYL1 increases both the targeted and collateral ssRNA cleavage activity of RspCas13d in a dose-dependent manner, with a molar excess of RspWYL1 yielding the greatest increase in Cas13d activity”.
